{
  "source": "the supplement of paper PMC9170038",
  "data": [
    {"tested_on": "MS2 coat protein", "test": "apparent KD of MS2 coat protein; higher = weaker reporter binding", "conditions": "Eterna round: R107; input ligand: theophylline 20 uM", "how_it_was_run": "(§1)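 Titration buffer: 100 mM Tris-HCl pH 7.5, 80 mM KCl, 4 mM MgCl2, without or with constant ligand. Designed RNA switches transcribed on-chip from Illumina sequencing clusters received SNAP-549-labelled MS2 coat protein in twofold steps from 0.7 or 1.5 nM to 3 µM. Apparent KD is the median per design of fits to normalised cluster binding curves.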", "units": {"apparent KD of MS2 coat protein": "nM"}, "values": [
      {"sequence": "UCACGACGCAUGGAUACCAGCGACAUGAGGAUCACCCAUGUAUGAGGAUCAGCCAUGUUAUGCCCUUGGCAGCCACGAAGGUCAU [KNKMULLIN]", "apparent KD of MS2 coat protein": 20.1},
      {"sequence": "UUCAAAGGGAACGGUGCUGGUAACAGAGAUACCAGAGUAAUAAUACUCCCUUGGCAGCUCAUAACAUGAGGAUCACCCAUGUAAU [Exclusion Theophylline A GF21]", "apparent KD of MS2 coat protein": 17.4},
      {"sequence": "ACGUCGCAUAGGAAAACUAUGUGACGAAAUCGAGGACCGGUACGGCCGCCACUCGUCCUCAACAUGAGGAUCACCCAUGUAAUAA [Mat - Exclusion - Trytophan A - D7]", "apparent KD of MS2 coat protein": 23.3},
      {"sequence": "GGUCACCUAUCCUCAUUGGUGACCCUGGAAGGAGCGAGCGAGAGCUCAGGUAGGUCGCCAGAACAUGAGGAUCACCCAUGUAAUA [(A)''-(M)'-(A)'(Arg1)-(Arg2)-(M1)-(M2)_Design12]", "apparent KD of MS2 coat protein": 120},
      {"sequence": "UUAUAAGUACCGGUCCUCAGAUCCUCAUGACGAGGACCGGUACGGCCGCCACUCGAAACAUGAGGAUCACCCAUGUAAUAACACU [Brourdmod20]", "apparent KD of MS2 coat protein": 30.4},
      {"sequence": "GAGGGUGAGCCUCUGGUCCGUUUGACGGAUACCAGCGAGAGGUCUCGCCCUUGGCAGCCGACGACAUGAGGAUCACCCAUGUUAA [#09 Exclusion-TheophyllineA]", "apparent KD of MS2 coat protein": 21.4},
      {"sequence": "UCGUCCUCCGCAAGGAGGAGGAGUUGCGAUACCAGCACGGUAACGUGCCCUUGGCAGCGCACAUGAGGAUCACCCAUGUGGUGUU [#1 Exclusion - Theophylline A Attempt #13 (HarryS)]", "apparent KD of MS2 coat protein": 425},
      {"sequence": "GUUUAAAGGUCGGCCGCCACUGUAGGAUGUGUUCUUUCACAUGAGGAUCACCCAUGUUGUUAUUAUAGGACCGGGAUUGUAGGAC [39MS split4]", "apparent KD of MS2 coat protein": 42.3},
      {"sequence": "UUCAGUACAACAGAUACCAGACAGUACUCUAAAUUGCAACAUGAGGAUCACCCAUGUAUAGUCCCUUGGCAGCUGUAAUGGGUGA [Theo B SS s2]", "apparent KD of MS2 coat protein": 159},
      {"sequence": "AACAUGAGGAUCACCCAUGUCUGAACUGAAGGAGCGCUAAAUAAGGCAGGUAGGUCGCGGAAUUUUGUAUAUAUAUAUAUAUGGG [9.F]", "apparent KD of MS2 coat protein": 28.5},
      {"sequence": "UUUGCACAUGAGGAUCACCCAUGUACAGAUACCAGCCUCAUCUACGGCCCUUGGCAGCUGAGACAAUGGUGACGUGAUGGGCUUU [Iserraxeso]", "apparent KD of MS2 coat protein": 14.7},
      {"sequence": "GGUUACUCUACGGCCGCCACUGUAAUGUAAAGAUUCCUGUACAUGACAUGAGGAUCACCCAUGUGCAGGACCGGGUAGUGUAACC [Tryptophan B 20]", "apparent KD of MS2 coat protein": 208},
      {"sequence": "UUUGCACAUGAGGAUCACCCAUGUACAGAUACCAGCCUCAUCUACGGCCCUUGGCAGCUGAGACAAUGGUGACGUGACGGGCUUU [Erqugere]", "apparent KD of MS2 coat protein": 14.4},
      {"sequence": "CAGAGCUACCGGGAUACCAGAAUUGGUAUUCCUAUAUUUCUUACAUGAGGAUCACCCAUGUUCCCUUGGCAGCUUGGUAGCUCUG [ETHB #9]", "apparent KD of MS2 coat protein": 87.6},
      {"sequence": "UUUUUCAUAGGUUAUAGUUAAGAAACUGAAGGAGCGUGGUAAUACACAGGUAGGUCGCAGAUUUUACAUGAGGAUCACCCAUGUU [JR_SSArginiA_Sub009]", "apparent KD of MS2 coat protein": 31.9},
      {"sequence": "CUGUACAUCUCGGCCGCCACUGACAUGAGGAUCACCCAUGUAGUACCUGAGAUAGACAUAUCUUACAGGACCGGGAGGUGUGCAG [SSTryp B #31]", "apparent KD of MS2 coat protein": 13.5},
      {"sequence": "UCUUUCUUUGUAGAUACCAGCAUGUUAAGUUUCUUUUGACAUGAGGAUCACCCAUGUACAUGCCCUUGGCAGCUACAUUUUCUUU [SSThB NP+V+V2 Same Structure]", "apparent KD of MS2 coat protein": 16.3},
      {"sequence": "UCCCUACCGUCGGCCGCCACUGGGUCAUACAGUUCGUAACUACAUGAGGAUCACCCAUGUGCAGCCAGGACCGGGACGCGCCUUG [theeternabot_sameState_MS2_Trp_B_16]", "apparent KD of MS2 coat protein": 153},
      {"sequence": "GACAUGAGGAUCACCCAUGUACCGCGAGAAGGAGCGCGGAUAAACGCAGGUAGGUCGCUCGUGGGCUUACAUUCAAGUGUAAGCU [Usarat]", "apparent KD of MS2 coat protein": 143}
    ]},
    {"tested_on": "MS2 coat protein", "test": "apparent KD of MS2 coat protein; higher = weaker reporter binding", "conditions": "Eterna round: R107; input ligand: theophylline 2 mM", "how_it_was_run": "as §1", "units": {"apparent KD of MS2 coat protein": "nM"}, "values": [
      {"sequence": "CUCAUCCACGCGGCCGCCACUACUUGUAGGUGUGGGUGUGUUGUGUUACAUGAGGAUCACCCAUGUAGGACCGGGCGUGGAUGAG [Whale]", "apparent KD of MS2 coat protein": 83.8},
      {"sequence": "UAUAUAGAUGGAAGUCAUAUAGAUGCAGAAGGAGCGUAGGAAACUACAGGUAGGUCGCUGAGGUACAUGAGGAUCACCCAUGUAG [SSArg A #18 Slice of Pi]", "apparent KD of MS2 coat protein": 25.3},
      {"sequence": "UUCUACGGCGAUCUGGGUUUACCAGAUCGACGAGGACCGGUACGGCCGCCACUCGUGUUUCUUUAACAUGAGGAUCACCCAUGUA [#11 Tryptophan A Same State]", "apparent KD of MS2 coat protein": 66.1},
      {"sequence": "GAUCGACAAAACGUCUAGGAAAACUAGACGCGAGGACCGGUACGGCCGCCACUCGUCCUCACAUGAGGAUCACCCAUGUACGAUC [#SwitchBubble 2 #CuTurnoff]", "apparent KD of MS2 coat protein": 46.3},
      {"sequence": "GCGAUGGAGCGAAGGAGCGGCUAAAUGUAUCACAUGAGGAUCACCCAUGUUCCAGGAUGUGGCCAGGUAGGUCGCGCUCCAUCGC [SSAB NP+V+V2 #16]", "apparent KD of MS2 coat protein": 322},
      {"sequence": "UGUGUUGUCCGAAGGAGCGGGACCUAAUAGUGGUAACAUGAGGAUCACCCAUGUAUUUCGUCCCAGGUAGGUCGCGGACAGUGUA [ArgiB-ms2@36]", "apparent KD of MS2 coat protein": 25.1},
      {"sequence": "GAAGGAGAACUCAUGACUCCUUCCCUGGAAGGAGCGAGCGAAAGCUCAGGUAGGUCGCCAGAAACAUGAGGAUCACCCAUGUAAU [(A)''-(M)'-(A)'-(Arg1)-(Arg2)-(M1)-(M2)_Design4]", "apparent KD of MS2 coat protein": 43.3},
      {"sequence": "AUCAUGGCCAUCGAUACCAGCUACAUGAGGAUCACCCAUGUAAACGGCGCGGUGAGAUGUAGCCCUUGGCAGCGAAGGGUCAAGG [Beonrexe]", "apparent KD of MS2 coat protein": 64},
      {"sequence": "CCUAUGCAGUCGGCCGCCACUGAACAUGAGGAUCACCCAUGUAAUUAUAAAUAUGGUCCUAAAAUCAGGACCGGGACUGUAUAGG [Ex Tryptophan B 7]", "apparent KD of MS2 coat protein": 296},
      {"sequence": "UCUCACAUGAGGAUCACCCAUGUGUGCGGUCGAGGACCGGUACGGCCGCCACUCGAAUCCUUCCGCGAGAAGAUUGUACGACGGC [theeternabot_sameState_MS2_Trp_A_38]", "apparent KD of MS2 coat protein": 99.9},
      {"sequence": "GCAUCCUAGUCGGCCGCCACUGCAUCACCAGUGGCAGGUGAUCAACAUGAGGAUCACCCAUGUAGCAGGACCGGGACUAGGAUGC [(Trp1)-(TM)''-(TM)'-(Ms2)-(Trp2)_Design4]", "apparent KD of MS2 coat protein": 168},
      {"sequence": "GGGUACAUCACGGCCGCCACUCAUGUAAAUACAUGAGGAUCACCCAUGUCGAUGGAGACAUCGGAGAGGACCGGGUGAUGUACCG", "apparent KD of MS2 coat protein": 620},
      {"sequence": "UACCGAUGAAGAAGGAGCGUACGUGGUUCACAUGAGGAUCACCCAUGUGCUUAUUGCUAGGUACAGGUAGGUCGCUUCAUCGGUA [SSAB NP+V+V2 #21]", "apparent KD of MS2 coat protein": 17.1},
      {"sequence": "CUCUCAUGAACAUGAGGAUCACCCAUGUAACGAGGACCGGUACGGCCGCCACUCGGUCGUGGAAACUAAUCGAGUGAGGUGGGAG [Tryp A Ex t5c]", "apparent KD of MS2 coat protein": 75.3},
      {"sequence": "GCUACAUGAGGAUCACCCAUGUGUACUGAAGGAGCGGCGGAAACGCCAGGUAGGUCGCAGUAUGUGGCUCUGGGCACGAGAAAGC [SSAA NP+V+V2 #2]", "apparent KD of MS2 coat protein": 72.9},
      {"sequence": "CGCCGAGAGGGAAGGAGCGCGAUAACAUAACAUGAGGAUCACCCAUGUAAGAAAUUAAUCAUGCAGGUAGGUCGCCCAAGCGGCG [Same State Arginine B GF 3]", "apparent KD of MS2 coat protein": 19.4},
      {"sequence": "ACGUCGCAUAGGAAAACUAUGUGACGAAAUCGAGGACCGGUACGGCCGCCACUCGUCCUCAACAUGAGGAUCACCCAUGUAAUAA [Mat - Exclusion - Trytophan A - D7]", "apparent KD of MS2 coat protein": 22.3},
      {"sequence": "GGUCACCUAUCCUCAUUGGUGACCCUGGAAGGAGCGAGCGAGAGCUCAGGUAGGUCGCCAGAACAUGAGGAUCACCCAUGUAAUA [(A)''-(M)'-(A)'(Arg1)-(Arg2)-(M1)-(M2)_Design12]", "apparent KD of MS2 coat protein": 111}
    ]}
  ]
}
